{"source": "a protein production outcome set (Wang et al. 2014)"}
{"test": "label from the status in PepcDB records"}
{"sequence": "AADGEGRGELSPKIKAGDLESKLIVPKNNGLKITGTFLDEISHDIPHQNWGEKEWDLDFQHMKRIGIDTVIMIRSGYRKFMTYPSPYLLKKGCYMPSVDLVDMYLRLAEKYNMKFYFGLYDSGRYWDTGDLSWEIEDNKYVIDEVWKMYGEKYKSFGGWYISGEISRATKGAIDAFRAMGKQCKDISNGLPTFISPWIDGKKAIMGTGKLTREDAVSVQQHEKEWNEIFDGIHEVVDACAFQDGHIDYDELDAFFTVNKKLADKYGMQCWTNAESFDRDMPIRFLPIKFDKLRMKLEAAKRAGYDKAITFEFSHFMSPQSAYLQAGHLYDRYREYFEIK", "protein production": "not failed"}
{"sequence": "AADKRIDGNGNPETREIKISDYDEITFVGSADFEYEQSDKAPYLSVTIDENLFDYLVTEVEGGTLKIYPKSIKKGFNNNSYDLRPTVYKIKSNSKELKELNTVGSGSFIISKPTKVNRMEINMAGSGNVELRGPVKGYKLECNMAGSGNIIAKDIQLDNLSCSLASSGEIEVIGTVDRASFNVAGSGEIKAFDCQARKAECNIASSGEISVYATQILDANIVGSGEIHYKGDPEISKSIMGSGSINKVK", "protein production": "not failed"}
{"sequence": "AAIYHLDVSGQATIRFRPPAFLKTLVSEHAGTTRLNTLSMIHHDDRHMLSNAYSKLREAKHSLTLVYRIVTPEGKLHWIEDHMRSSFSDD", "protein production": "failed"}
{"sequence": "AAKPQIVEVTDDMPVEPIGVGIPEAGQTYPVIMGDYAAQQARWARIDVQPGTALSKPKPLIAKLDPELGETGPEWAPVNP", "protein production": "failed"}
{"sequence": "AASSRSWKSWFIEQYFWLKRDKSYYSKQDDPSFQRYLDACREQSDKPYQLDTNLVNGPLVQENLYGMQVYSWNDNGKPDQKTIIYLAGGSYLNNPTTYHINMLKTLSTSLDAKIVLPIYPKAPRYTYNYTMPKLVNLYQHYYHKNQNVFLMGDSAGGGLALGLAHALHNESVPQPKQLVLLSPWLDVTMSHPEIPEYEDADPILSSWGLKRVGELWAYSADNTNHIYVSPKNGPITYLPPITLFTGTREIFYPDIRDYAAKLKAANHNITFITQEGMNHVYPIYPIEEAKTAQYQIIDAINKT", "protein production": "failed"}
{"sequence": "ACKVLYSLGELNERFVPKTLKERVASIADVHFEHWNKYGDSVTATVNKADKSKDRTYKTECPLEFYDALPRVGEICYAYEIFLEPQFESCEYTEHMYLNLQTPRNYAILLRNKLPRLAEMPLFSNQGKLHVRVANAPLEVIIQNSEQLELLH", "protein production": "failed"}
{"sequence": "ADSPVLMVYGLDQSKMNCDRVFNVFCLYGNVEKVKFMKSKPGAAMVEMADGYAVDRAITHLNNNFMFGQKMNVCVSKQPAIMPGQSYGLEDGSCSYKDFSESRNNRFSTPEQAAKNRIQHPSNVLHFFNAPLEVTEENFFEICDELGVKRPTSVKVFSGKSERSSSGLLEWDSKSDALETLGFLNHYQMKNPNGPYPYTLKLCFSTAQHAS", "protein production": "not failed"}
{"sequence": "AEDPILRAIPENAFDGIAVTDAGGHVVYANSTYLALTGAATMQDVRPVERVFIGNPDVSEAVFRLLKAAREGRRLQEEVRVAGADGTQGRWMRLRVRPLGTSKREARQTVWSIADITRDRERQEDVFQTLQHAIEYLDHAPCGFFSVNPAGNLVYVNATLANWLDH", "protein production": "failed"}
{"sequence": "AEGQTVYWHAWGGDPKINAFIAWVGEQARARHGFMLEQVKLADTTEAVARVLAEKQAGRTEGGAVDLIWINGENFAAMKAQGLLSEPFAESLPNWTHVDVAGKPAVVTDFTEPTGGLESPWAMAQLVFEHDSARLPAPPRTLAQLLAWIEVNPGRFTFPQPPDYLGTTFLKQVLYGVIEDPGLLQKPVDPATYETVTAPLWTWLDRAEPYLWREGRAYPANEPALGQLFADGEIAISFAFNPGRASAAIAAGELPETVRTFTLEGGTIGNASFVAIPFNAAHAAGAKVIANLLLDPEVQARAQDPAVLGFQTVLDVAALPEPDRARFAAL", "protein production": "failed"}
{"sequence": "AEICLITGTPGSGKTLKMVSMMANDEMFKPDENGIRRKVFTNIKGLKIPHTYIETDAKKLPKSTDEQLSAHDMYEWIKKPENIGSIVIVDEAQDVWPARSAGSKIPENVQWLNTHRHQGIDIFVLTQGPKLLDQNLRTLVRKHYHIASNKMGMRTLLEWKICADDPVKMASSAFSSIYTLDKKVYDLYESAEVHTVNKVKRSK", "protein production": "not failed"}
{"sequence": "AERTIQLPKPDMNRAGLLMKALSERHSTREYASKALSNTDLSDLLWAANGINRSSEGKRTAPSAMNRQDIDIYVVLPQGTYLYDAKGHKLNLISEGDHRSAVAGGQAFVNNAPVSLVLVSDLSKLGDAKSNHVQLMGAMDAGIVSQNISLFCSAARLATVPRASMDLVRLKAALKLKDTQMPMMNHPVGYFK", "protein production": "not failed"}
{"sequence": "AGGTTPAELRAAAADFTWLLNRFATETAGVVDAIAVSSDGLLIAVSELREHADSERLAAIVSGITSLAAGASGNYGLGGLNKVIIDLEGGHVLVSAIGSGAVLGVVTDKEAKLGNIAYEMTLFANRAGAALS", "protein production": "failed"}
{"sequence": "AGKPDWDWQPAPKNEALIAAVSAAAQEGLNAAYQIREKQARTTKLREVYAAVQAAMAEQAAQAGQPAPDSVGVDNILFDLEARIVRSQILNGEPRIDGRDTRTVRP", "protein production": "not failed"}
{"sequence": "AHADFEHLPVALMKFGSDGSLRVANRAARDLLGLGHDAQPDFSDLFEGLGRAVRDWLADVAAERMPGGAEVLRLRRSEEEVFLQIALRRIVEHGRPLVLAVLNDAT", "protein production": "failed"}
{"sequence": "AHHHHHHGSKMIKVKVIGRNIEKEIEWREGMKVRDILRAVGFNTESAIAKVNGKVVLEDDEVKDGDFVEVIPVVSGG", "protein production": "not failed"}
{"sequence": "AHKLFIGGLPNYLNDDQVKELLTSFGPLKAFNLVKDSATGLSKGYAFCEYVDINVTDQAIAGLNGMQLGDKKLLVQRASVGAKNA", "protein production": "not failed"}
{"sequence": "AIACHTQVGGSMQVPEPRRPFTCSSENNVTNSFFEEAYSASFRSKLYNMVEEIEQERAKYCNSANLSYMDAFGVEKESIEEDYNKEEDRDSLCSVDIADNSETSNRSSEDLLCDNCSKSLMFLNNVFKWNDLLFCNLDCYTSAILKNQKGADVKHRVACSLSPTWHKDCVHSVQD", "protein production": "not failed"}
{"sequence": "AIAELTGQRLREGDGPDGPADDGAGAQADLEHSLLVAAEKKDEGPYRMEHFRWGSPPKDKRYGGFMTSEKSQTPLVTLFKNAIIKNAYKKGE", "protein production": "failed"}
{"sequence": "AIAMFTLPLLFPIITLPEPTGKYTVGTKAFHLIDTNRKETTVPNNHGNRELMIQVYYPAEKGSGKPSAYFENIDALAEQLAVTKGAPYIVTTHLGLTKTHSYQDAKPLQVKEKFPLLLFGHGMELYGQQNTFQLEELASQGYVVIALNFTGYAATTIFPNGKRIDSVPIEFTPNALNNMVRNWEQDTTFILNEVIKGNFDKNFTAIANLIDDDKIGMFGHSYGGATAAQMLVKDNRIKAAIDMDGGLYGDPMPKDGPQKPFMLMNAEATIQYMKEAENQKTDGIQDELFEISYLRNKTIEKPGAYTVVLPKTNHNSFTDLAAFSPIINEPGEDVSANYTLINKLVTSFFDQTLKG", "protein production": "failed"}
{"sequence": "AIAPLGEEKNGKCDGSIYVNNPHLDSMTDDILYHFNLGTSTHDLPKMFGDVKFVCVGGSPWRMKSFTEYIAKELGLVDPNAEYPNICAGTDRYAMYKVGPVLSVSHGMGIPSISIMLHELIKLLYHARCTDVTVVRIGTSGGIGLKPGTVVVTKQSVDSLFQPHLEQTILGKPVVRSTELDKELAEELLQCGKELGEFEIIIGNTMCTLDFYEGSNVFEDKCTRIAAYSFKIHVL", "protein production": "failed"}
{"sequence": "AIAPSDLAKKKAAKKKEAAKARGRTRKPEDGVNGDAEKPEIQENGAAEVNGVDSLAKELDEFELKKTEARAVTGVLASHPNSTDVHISSLSLTFHGQELLSDTSLELNSGRRYGLIGLNGTGKSMLLSAISHREVPIPEHIDIYHLTREMAPSEKTALQCVMEVDEERIKLEKEAERLAHEDSECEKLMELYERLEELDADKASMRASRILHGLGFTTSMQQKKLKDFSGGWRMRVALARALFLKPFMLLLDEPTNHLDLDACVWLEEELSQFKRILVLISHSQDFLNGVCTNIIHLHQRKLKYYTGNYDQYVKTREELEENQMKRFNWEQDQIAHMKNYIARFGHGSAKLARQAQSKEKTLQKMVASGLTERVVNDKTLSFYFPPCGKIPPPVIMVQNVSFRYSENTPYIYKNLEFGIDLDTRVALVGPNGAGKSTLLKLLTGELLPSDGMIRKHSHVKIGRYHQHLTEQLELDLSPLEYMMKCYPEIKEKEEMKKIIGRYGLTGKQQVSPIRNLSDGQKCRVCFAWLAWQNPHMLFLDEPTNHLDIETIDALAEAINDFEGGMMLVSHDFRLIQQVAQEIWVCEKQTITKWSRDILAYKEHLKSKIDKQMHDL", "protein production": "failed"}
{"sequence": "AIATSALENYINRTVAVITSDGRMIVGTLKGFDQTINLILDESHERVFSSSQGVEQVVLGLYIVRGDNVAVIGEIDEETDSALDLGNIRAEPLNSVAH", "protein production": "not failed"}
{"sequence": "AIDENKQKALAAALGQIEKQFGKGSIMRLGEDRSMDVETISTGSLSLDIALGAGGLPMGRIVELYGPESSGKTTLTLQVIAAAQREGKTCAFIDAEHALDPIYARKLGVDIDNLLCSQPDTGEQALEICDALARSGAVDVIVVDSVAALTPKAEIEGEIGDSHMGLAARMMSQAMRKLAGNLKQSNTLLIFINQIRMKIGVMFGNPETTTGGNALKFYASVRLDIRRIGAVKEGENVVGSETRVKVVKNKIAAPFKQAEFQILYGEGINFYGELVDLGVKEKLIEKAGAWYSYKGEKIGQGKANATAWLKDNPETAKEIEKKVRELLLSNPNSTPDFSVDDSEGVAETNEDF", "protein production": "not failed"}
{"sequence": "AKGSMIQFDAPDGKKANAYMVKASSPSTKYVFLIHEWWGLNDYIKKDADKLYADLGGNVNIMALDLYDGKVTANRDSAAAYMGAASATRIGSILNGAFMFAGDKAEIISMGWCFGGGWALQSSILAGNKSKGTIMYYGMTEKDPVKLAGLKGDVLGIFGSKDKWINPEMVAAFDKDLTAAGKKHTIKSFDADHAFANPSNPQFNKAYTEEAWGMSVAFIKKAFG", "protein production": "failed"}
{"sequence": "AKTWVLTNAEEGIDKGNWQINSDQLKVKDHAFSIEQKVLHGGKQEGSKILTIHSKDGLTITLSPTRGMNLLRIEGFGSRMGWDSPVKEVVNPAFINLESRNGLGWLEGFNEMMVRCGYEWTGHPVTADGQIYTLHGKAGNTPASLVEVEVADSAPYEIRIRGLVKESTFKKADLQTLTELRYVPGSNSFSLHDVLTNHADYPHDYQIIYHSNFGTPILEEGARFLAPISSISPFNDYAKSGLKTWQTYQGPTKDFDEMVFNIQPLADENHQTLAAVVNKAGDKGASIQFDTRQLPVLTLWKNTDTVKQGYVTGIEPGTSYAYPVTIERKQKRVKQLQPGASAQFDLTYTLLHDSAQVAAVEQKIAKIQGDNKVAENETPIAKE", "protein production": "not failed"}
{"sequence": "ALGVGRSGAMDQTALSQANRIVGNPDHAAVIEILNGGLKLKVLQSTVVAVTGAASHIGVSYAGQAQVKVPDYSPIALDCGDLLYIDSPHAGLRHYLAIRGGIKTEKILGSASFDTLAELGTPPLKPHDFIYSAELSVGSVLLHEKCAQQLPKIGDVVEVDVILGPRTDWFEPESLTQFFQQQWLVTQESNRIGLRLSAGLPLKRQIHGELASEGTCTGALQIPPNGQPVLFMNDHPLTGGYPVLGAIAIDHLDRVAQIPPGCLIQFRQKSEILDLDKEST", "protein production": "failed"}
{"sequence": "ALKQKIIGNGEKRVVTYAPTWREDDFISVGHYHFRWHFSLKKMMGLLPEDVMLLIRPHYLVTDRIDIKGFEDRVVIDSTTDMNEIYLITDLMVTDYSSVMFDFAILKRPMLFFAYDLEYYRDDLRGFYFDYYTELPGSIVTDETHLLAEIDQLLQNNFAELDPERFNKFAKRFVSWERGTAAQQVIEKINYRRDEK", "protein production": "failed"}
{"sequence": "ALSGSSGYKFGVLAKIVNYMKTRHQRGDTHPLTLDEILDETQHLDIGLKQKQWLMTEALVNNPKIEVIDGKYAFKPKYNVR", "protein production": "not failed"}
{"sequence": "ALSSLNIIHIAAPHLEALNIATGETINFSSREDDHAILIYKLEPTTGMLRTRAYIGQHMPLYCSAMGKIYMAFGHPDYVKSYWENHQHEIQPLTRNTITELPAMFDELAHIRESGAAMDREENELGVSCIAVPVFDIHGRVPYAVSISLSTSRLKQVGEKNLLKPLRETAQAISNELGFTVRDDLGAIT", "protein production": "not failed"}
